The record followed here is paper doi:10.1101/840439 (bioRxiv, 2019).

For orientation: stoichiometry N means the number of molecules, sites or subunits per partner or assembly.

This series deals with the molecule itself. The series is described as follows: crystal structure.

B1: BchL (L-protein of dark-operative protochlorophyllide oxidoreductase, DPOR), wild type (enzyme, Rhodobacter sphaeroides, UniProt Q9RFD6 1-297, looked up)
chain: MSPKDLTIPTGADGEGSVQVHLDEADKITGAKVFAVYGKGGIGKSTTSSNLSAAFSILGKRVLQIGCDPKHDSTFTLTGSLVPTVIDVLKDVDFHPEELRPEDFVFEGFNGVMCVEAGGPPAGTGCGGYVVGQTVKLLKQHHLLDDTDVVIFDVLGDVVCGGFAAPLQHADQAVVVTANDFDSIYAMNRIIAAVQAKSKNYKVRLAGCVANRSRATDEVDRFCKETNFRRLAHMPDLDAIRRSRLKKKTLFEMDEDQDVLAARAEYIRLAESLWRGLDPIDPHSLPDRDIFELLGFD
For B1, the “stoichiometry N” value is 2.
